Data as given in US20160152947A1 (BOARD OF REGENTS OF THE UNIVERSITY OF OKLAHOMA, published 2016).

B1: commercial full-length RSPO4 produced in CHO cells (R&D Systems, catalog number 4575-RS-025/CF) (ligand, UniProt Q2I0M5 20-234, looked up)
chain: LNRRKKQVGTGLGGNCTGCIICSEENGCSTCQQRLFLFIRREGIRQYGKCLHDCPPGYFGIRGQEVNRCKKCGATCESCFSQDFCIRCKRQFYLYKGKCLPTCPPGTLAHQNTRECQGECELGPWGGWSPCTHNGKTCGSAWGLESRVREAGRAGHEEAATCQVLSESRKCPIQRPCPGERSPGQKKGRKDRRPRKDRKLDRRLDVRPRQPGLQP
notes: mature; Bought protein; also called R&D RSPO4 (CHO)
B2: MBP-Th-RSPO2 Fu1-Fu2-H6 (MBP-Th-RSPO2.22-144-H6) (ligand)
chain: QGNRWRRSKRASYVSNPICKGCLSCSKDNGCSRCQQKLFFFLRREGMRQYGECLHSCPSGYYGHRAPDMNRCARCRIENCDSCFSKDFCTKCKVGFYLHRGRCFDECPDGFAPLEETMECVEGHHHHHH
notes: Produced in E. coli; also called pAC018; not shown: thrombin cut site (Th) linker
B3: MBP-Th-RSPO1 Fu1-Fu2-H6 (ligand)
chain: SRGIKGKRQRRISAEGSQACAKGCELCSEVNGCLKCSPKLFILLERNDIRQVGVCLPSCPPGYFDARNPDMNKCIKCKIEHCEACFSHNFCTKCKEGLYLHKGRCYPACPEGSSAANGTMECSSPHHHHHH
notes: Produced in E. coli; also called MBP-Th-hRSPO1 Fu1-Fu2-H6; not shown: thrombin cut site (Th) linker
B4: MBP-Th-RSPO4 Fu1-Fu2-H6 (MBP-Th-RSPO4.21-138-H6), produced in E. coli (ligand)
chain: NRRKKQVGTGLGGNCTGCIICSEENGCSTCQQRLFLFIRREGIRQYGKCLHDCPPGYFGIRGQEVNRCKKCGATCESCFSQDFCIRCKRQFYLYKGKCLPTCPPGTLAHQNTRECQGEHHHHHH
notes: Bacterially produced; also called MBP-Th-RSPO4 (E. coli); pAP356; not shown: thrombin cut site (Th) linker
B5: MBP-Th-RSPO3 Fu1-Fu2-H6 (MBP-Th-RSPO3.22-146-H6) (ligand)
chain: QNASRGRRQRRMHPNVSQGCQGGCATCSDYNGCLSCKPRLFFALERIGMKQIGVCLSSCPSGYYGTRYPDINKCTKCKADCDTCFNKNFCTKCKSGFYLHLGKCLDNCPEGLEANNHTMECVSIVHHHHHH
notes: Produced in E. coli; also called pAP355; not shown: thrombin cut site (Th) linker
B6: Biotin-ZNRF3 ECD (Avi tag-ZNRF3.56-216-H6, MBP removed by thrombin) (receptor, human)
chain: KETAFVEVVLFESSPSGDYTTYTTGLTGRFSRAGATLSAEGEIVQMHPLGLCNNNDEEDLYEYGWVGVVKLEQPELDPKPCLTVLGKAKRAVQRGATAVIFDVSENPEAIDQLNQGSEDPLKRPVVYVKGADAIKLMNIVNKQKVARARIQHRPPRQPTEYHHHHHH
modifications: biotin on the N-terminal Avi tag (site-specific in vivo biotinylation by BirA)
notes: range 56-216; Expressed in E. coli as MBP-Th-Avi tag-ZNRF3.56-216-H6; also called biotinylated ZNRF3 ECD; B-Z; not shown: Avi tag (and residues left after thrombin cleavage)

Assays:
[1] = target: T1, MBP-Th-LGR4 LRR1-14 (MBP-Th-hLGR4.23-383-H6) (human, UniProt Q9BXB1 23-383); experiment: TR-FRET competition binding; Tb-labeled MBP-Th-LGR4 LRR1-14, AF488-labeled MBP-Th-RSPO2 Fu1-Fu2 as tracer
T1 construct: range 23-383; Produced in E. coli; Labeled with amine-reactive terbium chelate in the TR-FRET assay; unlabeled in the AlphaLISA ternary complex assay; also called MBP-Th-LGR4 ECD; LGR4 ECD; not shown: thrombin cut site (Th) linker

[2] = target: T1, MBP-Th-LGR4 LRR1-14 …; experiment: TR-FRET competition binding; Tb-labeled MBP-Th-LGR4 LRR1-14 (20 nM), AF488-labeled MBP-Th-RSPO2 Fu1-Fu2 (125 nM) as tracer
Procedure: (§1) HEK293T cells transfected with TOPFLASH firefly luciferase reporter and Renilla luciferase control plasmids were treated with the indicated concentrations of MBP-Th-RSPO Fu1-Fu2 proteins in 1:6 diluted Wnt3a conditioned media. […] (C) AlphaLISA® luminescent proximity assay (BMG Labtech GmbH, Ortenberg, Germany) for ZNRF3 ECD binding. The indicated concentrations of MBP—Th-RSPO Fu1-Fu2 proteins were incubated with 3 nM Biotin-ZNRF3 ECD. Donor and acceptor beads were at 20 μg/ml each. Data shown for panels A-C are representative of at least three independent experiments, each performed in duplicate. The error bars represent the S.E.M. of the experiment. (D, E, F) Vertical scatter plots showing the pECso, Eₘₐₓ, and pK₁ values obtained from replicate independent signaling and LGR4 binding experiments as in panels A and B. The mean values and error bars representing the S.E.M. of the replicates are denoted.
(§2) The LGR4 ECD binding abilities of the newly purified MBP-Th-RSPO Fu1-Fu2-H₆ proteins were examined in an in vitro LanthaScreen®TR-FRET competition-binding assay (Thermo Fisher Scientific Inc., Rockford, Ill.).

[3] = target: T1, MBP-Th-LGR4 LRR1-14 …; experiment: TR-FRET competition binding to LGR4 ECD
Procedure: as §1, §2

[4] = target: T1, MBP-Th-LGR4 LRR1-14 …; experiment: AlphaLISA ternary complex control assay

Binder	pKI [1]	pKI [2]	further results
B1	8.23		
B2		7.26	
B3		6.9	
B4	8.28	8.12	fold stronger affinity than RSPO2 and RSPO3 [3]: ~7 fold
B5		7.31	
B6			binding result [4]: no binding (tested: 5 nM each)
